According to IntAct's records for PubMed 31515488:

B1: Isoform 1 of DNA mismatch repair protein Mlh1 (Homo sapiens), P40692-1 (parent)
chain: MSFVAGVIRRLDETVVNRIAAGEVIQRPANAIKEMIENCLDAKSTSIQVIVKEGGLKLIQIQDNGTGIRKEDLDIVCERFTTSKLQSFEDLASISTYGFRGEALASISHVAHVTITTKTADGKCAYRASYSDGKLKAPPKPCAGNQGTQITVEDLFYNIATRRKALKNPSEEYGKILEVVGRYSVHNAGISFSVKKQGETVADVRTLPNASTVDNIRSIFGNAVSRELIEIGCEDKTLAFKMNGYISNANYSVKKCIFLLFINHRLVESTSLRKAIETVYAAYLPKNTHPFLYLSLEISPQNVDVNVHPTKHEVHFLHEESILERVQQHIESKLLGSNSSRMYFTQTLLPGLAGPSGEMVKSTTSLTSSSTSGSSDKVYAHQMVRTDSREQKLDAFLQPLSKPLSSQPQAIVTEDKTDISSGRARQQDEEMLELPAPAEVAAKNQSLEGDTTKGTSEMSEKRGPTSSNPRKRHREDSDVEMVEDDSRKEMTAACTPRRRIINLTSVLSLQEEINEQGHEVLREMLHNHSFVGCVNPQWALAQHQTKLYLLNTTKLSEELFYQILIYDFANFGVLRLSEPAPLFDLAMLALDSPESGWTEEDGPKEGLAEYIVEFLKKKAEMLADYFSLEIDEEGNLIGLPLLIDNYVPPLEGLPIFILRLATEVNWDEEKECFESLSKECAMFYSIRKQYISEESTLSGQQSEVPGSIPNSWKWTVEHIVYKALRSHILPPKHFTEDGNILQLANLPDLYKVFERC
B2: Synaptotagmin-16 (Homo sapiens), Q17RD7 (parent)
chain: MVLAMASQDVQNFFQPFSSWISRVYEALQQAGDMLSASLVNISKQDSKLSDKLDQDLDNIQIQETYFEDEEQDNDWSQEDANSLFLEVDHFSCCNSDLQDSAQNSSPSLSQHAKDSCSTMSQWPNWASDDRKLPHVLSSIAEEEHHLEKQRSGLQHGFDSQLPGTLETVNGKKQVNSFGDDEELSTSSDSDEEVIKQFEISVSRSQSFRSVTSEKGKQTGLEQKPKFSRSLLTHGEDGTEVSACEDLDGASQRRYSENLSYGEDDHIPAHSQSPCERGDAKHHGTSHQESSVVQSLRRQSTEGSLEMETAFNSRGFEDSYATDSSSMWSPEEQDRTNLQVPSGVSEPISKCGDLDVIFEYRAASQKLTVTIVRAQGLPDKDRSGVNSWQVHVVLLPGKKHRGRTNIQRGPNPVFREKVTFAKLEPRDVAACAVRFRLYAARKMTRERMMGEKLFYLSHLHPEGEMKVTLVLEPRSNISSGGSPLSPSAVSHSDSTSSTQSLSHGGAPELLVGLSYNATTGRLSVEMIKGSHFRNLAVNRAPDTYGKLFLLNSVGQEMSRCKTSIRRGQPNPVYKETFVFQVALFQLSDVTLMISVYNRRTMKRKEMIGWIALGQNSSGEEEQDHWEEMKETKGQQICRWHTLLES
B3: Dolichyl-diphosphooligosaccharide--protein glycosyltransferase subunit 1 (Homo sapiens), P04843 (parent)
chain: MEAPAAGLFLLLLLGTWAPAPGSASSEAPPLINEDVKRTVDLSSHLAKVTAEVVLAHLGGGSTSRATSFLLALEPELEARLAHLGVQVKGEDEEENNLEVRETKIKGKSGRFFTVKLPVALDPGAKISVIVETVYTHVLHPYPTQITQSEKQFVVFEGNHYFYSPYPTKTQTMRVKLASRNVESYTKLGNPTRSEDLLDYGPFRDVPAYSQDTFKVHYENNSPFLTITSMTRVIEVSHWGNIAVEENVDLKHTGAVLKGPFSRYDYQRQPDSGISSIRSFKTILPAAAQDVYYRDEIGNVSTSHLLILDDSVEMEIRPRFPLFGGWKTHYIVGYNLPSYEYLYNLGDQYALKMRFVDHVFDEQVIDSLTVKIILPEGAKNIEIDSPYEISRAPDELHYTYLDTFGRPVIVAYKKNLVEQHIQDIVVHYTFNKVLMLQEPLLVVAAFYILFFTVIIYVRLDFSITKDPAAEARMKVACITEQVLTLVNKRIGLYRHFDETVNRYKQSRDISTLNSGKKSLETEHKALTSEIALLQSRLKTEGSDLCDRVSEMQKLDAQVKELVLKSAVEAERLVAGKLKKDTYIENEKLISGKRQELVTKIDHILDAL
B4: Pre-B-cell leukemia transcription factor-interacting protein 1 (Homo sapiens), Q96AQ6 (parent)
chain: MASCPDSDNSWVLAGSESLPVETLGPASRMDPESERALQAPHSPSKTDGKELAGTMDGEGTLFQTESPQSGSILTEETEVKGTLEGDVCGVEPPGPGDTVVQGDLQETTVVTGLGPDTQDLEGQSPPQSLPSTPKAAWIREEGRCSSSDDDTDVDMEGLRRRRGREAGPPQPMVPLAVENQAGGEGAGGELGISLNMCLLGALVLLGLGVLLFSGGLSESETGPMEEVERQVLPDPEVLEAVGDRQDGLREQLQAPVPPDSVPSLQNMGLLLDKLAKENQDIRLLQAQLQAQKEELQSLMHQPKGLEEENAQLRGALQQGEAFQRALESELQQLRARLQGLEADCVRGPDGVCLSGGRGPQGDKAIREQGPREQEPELSFLKQKEQLEAEAQALRQELERQRRLLGSVQQDLERSLQDASRGDPAHAGLAELGHRLAQKLQGLENWGQDPGVSANASKAWHQKSHFQNSREWSGKEKWWDGQRDRKAEHWKHKKEESGRERKKNWGGQEDREPAGRWKEGRPRVEESGSKKEGKRQGPKEPPRKSGSFHSSGEKQKQPRWREGTKDSHDPLPSWAELLRPKYRAPQGCSGVDECARQEGLTFFGTELAPVRQQELASLLRTYLARLPWAGQLTKELPLSPAFFGEDGIFRHDRLRFRDFVDALEDSLEEVAVQQTGDDDEVDDFEDFIFSHFFGDKALKKRSGKKDKHSQSPRAAGPREGHSHSHHHHHRG
B5: U3 small nucleolar RNA-associated protein 14 homolog C (Homo sapiens), Q5TAP6 (parent)
chain: MNVNQVAENLALSHQEELVDLPKNYPLSENEDEGDSDGERKHQKLLEAIISLDGKNRRKLAERSEASLKVSEFSVSSEGSGEKLGLADLLEPVKTSSSLATVKKQLNRVKSKKVVELPLNKEKIEQIHREVAFSKTSQVLSKWDPIILKNQQAEQLVFPLGKEQPAIAPIEHALSGWKARTPLEQEIFNLLHKNKQPVTDPLLTPMEKASLQAMSLEEAKMHRAELQRARALQSYYEAKARKEKKIKSKKYHKVVKKGKAKKALKEFEQLQKVNPTVALEEMEKIENARMMERMSLKHQNSGKWAKSKAIMAKYDLEARQAMQEQLAKNKELTQKLQVASESEEEEGGTEVEELLVPHVANEVQMNVDGPNPWMFRSCTSDTKEAATQEDPEQVPELAAHEVSASEAEERPVAEEEILLREFEERQSLRKRSELNQDAEPASSQETKDSSSQEVLSELRALSQKLKEKHQSRKQKASSEGTVPQVQREEPAPEEAEPLLLQRSERVQTLEELEELGKEDCFQNKELPRPVLEGQQSERTPNNRPDAPKEKKEKEQLINLQNFLTTQSPSVRSLAVPTIIEELEDEEERDQRQMIKEAFAGDDVIRDFLKEKREAVEASKPKDVDLTLPGWGEWGGVGLKPSAKKRRQFLIKAPEGPPRKDKNLPNVIISEKRNIHAAAHQVQVLPYPFTHHRQFERTIQTPIGSTWNTQRAFQKLTTPKVVTKPGHIIKPIKAEDVGYQSSSRSDLPVIQRNPKRITTRHNKEEKL
partner: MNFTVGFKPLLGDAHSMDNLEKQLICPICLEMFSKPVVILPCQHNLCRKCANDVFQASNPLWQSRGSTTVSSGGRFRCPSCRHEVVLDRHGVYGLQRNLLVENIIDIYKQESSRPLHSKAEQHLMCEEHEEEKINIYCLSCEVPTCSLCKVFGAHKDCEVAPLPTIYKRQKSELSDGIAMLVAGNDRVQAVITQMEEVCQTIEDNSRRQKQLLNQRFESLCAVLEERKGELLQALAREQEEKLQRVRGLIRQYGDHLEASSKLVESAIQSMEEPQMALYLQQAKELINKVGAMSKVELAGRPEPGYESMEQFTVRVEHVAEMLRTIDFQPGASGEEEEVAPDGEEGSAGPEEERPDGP

Variants of: B1
Details: with msh3_human MSH3, P20585

effect of a mutation on the interaction | Variant
with no effect | R69K

Variants of: B1
Details: with ima1_human KPNA2, P52292

effect of a mutation on the interaction | Variant
with no effect | R69K

Variants of: B1
Details: with psa1_human PSMA1, P25786

effect of a mutation on the interaction | Variant
with no effect | R69K

Variants of: B1
Details: with msh3_human MSH3, P20585
Remark: another data set of the same source

effect of a mutation on the interaction | Variant
with no effect | V384D
with no effect | S106N
disrupting interaction strength | V326A

Variants of: B1
Details: with ima1_human KPNA2, P52292
Remark: another data set of the same source

effect of a mutation on the interaction | Variant
with no effect | V384D
with no effect | S106N
disrupting interaction strength | V326A

Variants of: B1
Details: with psa1_human PSMA1, P25786
Remark: another data set of the same source

effect of a mutation on the interaction | Variant
with no effect | V384D
with no effect | S106N
disrupting interaction strength | V326A

Variants of: B2
Details: with praf1_human RABAC1, Q9UI14

effect of a mutation on the interaction | Variant
with no effect | A536T
with no effect | R131L

Variants of: B2
Details: with rtn4_human RTN4, Q9NQC3

effect of a mutation on the interaction | Variant
with no effect | A536T
with no effect | R131L

Variants of: B2
Details: with atrap_human AGTRAP

effect of a mutation on the interaction | Variant
with no effect | A536T
with no effect | R131L

Variants of: B3
Details: with ubql1_human UBQLN1, Q9UMX0

effect of a mutation on the interaction | Variant
disrupting interaction strength | F203L

Variants of: B3
Details: with sgta_human SGTA

effect of a mutation on the interaction | Variant
with no effect | F203L

Variants of: B4
Details: with sgta_human SGTA

effect of a mutation on the interaction | Variant
with no effect | R499Q

Variants of: B4
Details: with mdfi_human MDFI

effect of a mutation on the interaction | Variant
with no effect | G357D

Variants of: B5
Details: with tri54_human TRIM54, Q9BYV2

effect of a mutation on the interaction | Variant
with no effect | A652T
